The values that follow come from PMC6821171.

The target of this data set is TF-LYAR-FL (FLAG) (human) (UniProt Q9NX58). Nature of the data set: EMSA. The following applies: EMSA: 10 mM Tris-HCl pH 7.4, 50 mM KCl, 1 mM DTT, 2.5 % (further components not shown in material), 20 µl, 30 min, room temperature.

Regarding “GGTATATCTTTCGCTCCGAGTCGGCATTTTGGGCCGCCGGGTTATTGCTGACACGCTGTCCTCTGGCGACCTGTCGTC (double strand) [H0 rDNA promoter probe (H0-BT)]”, the binding entry was “no binding”.
